Laboratory results: the supplement of paper PMC7125110
± gives the standard error. For some of these results: This sample holds only a part of the variants without activity.

B1: glmS ribozyme (parent)
chain: AUAAAAGCGCCAGAACUACAGAAAUGUAGUUGACGAGGAGGAGGUUUAUCGAAUUUUCGGCGGAUGCCUCCAAA

Experiments:
Details in all cases: with glucosamine-6-phosphate
glucosamine-6-phosphate [1] = variants of: B1; test: kcat; higher = faster cleavage; RNA array
Procedure, shortened: (§1)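 Tiles bearing barcoded ribozyme variants, transcribed in situ by E. coli RNA polymerase on sequenced MiSeq chips, were imaged over ~14 h at 37 °C using a hybridised Cy3 probe. Glucosamine-6-phosphate was supplied at 40 μM to 10 mM in HEPES/KCl/Mg(OAc)2 buffer. kobs came from one- or two-exponential decay fits to normalised per-tile medians, and weighted Michaelis–Menten fits then provided kcat and KM.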

glucosamine-6-phosphate [2] = variants of: B1; test: KM; higher = weaker cofactor use; RNA array
Procedure, shortened: as §1

glucosamine-6-phosphate [3] = variants of: B1; test: self-cleavage kobs at 40 uM GlcN6P; higher = faster cleavage; RNA array
Procedure, shortened: as §1

glucosamine-6-phosphate [4] = variants of: B1; test: self-cleavage kobs at 160 uM GlcN6P; higher = faster cleavage; RNA array
Procedure, shortened: as §1

glucosamine-6-phosphate [5] = variants of: B1; test: self-cleavage kobs at 640 uM GlcN6P; higher = faster cleavage; RNA array
Procedure, shortened: as §1

glucosamine-6-phosphate [6] = variants of: B1; test: self-cleavage kobs at 2500 uM GlcN6P; higher = faster cleavage; RNA array
Procedure, shortened: as §1

glucosamine-6-phosphate [7] = variants of: B1; test: self-cleavage kobs at 10000 uM GlcN6P; higher = faster cleavage; RNA array
Procedure, shortened: as §1

Variant	kcat (glucosamine-6-phosphate [1]) [s⁻¹]	KM (glucosamine-6-phosphate [2]) [µM]	self-cleavage kobs at 40 uM GlcN6P (glucosamine-6-phosphate [3]) [s⁻¹]	self-cleavage kobs at 160 uM GlcN6P (glucosamine-6-phosphate [4]) [s⁻¹]	self-cleavage kobs at 640 uM GlcN6P (glucosamine-6-phosphate [5]) [s⁻¹]	self-cleavage kobs at 2500 uM GlcN6P (glucosamine-6-phosphate [6]) [s⁻¹]	self-cleavage kobs at 10000 uM GlcN6P (glucosamine-6-phosphate [7]) [s⁻¹]
U46C C67A	0.000818 ± 0.00012	1380 ± 390	3.57e-05 ± 1.7e-05	6.58e-05 ± 2.1e-05	0.000284 ± 5.6e-05	0.00062 ± 0.00012	0.000676 ± 0.00011
G37A C71U	0.00282 ± 0.00026	2690 ± 370	4.51e-05 ± 4.2e-06	0.000172 ± 1.9e-05	0.000478 ± 4.3e-05	0.0015 ± 0.00028	0.00225 ± 0.00014
U31G C50U	2.22e-05 ± 1.4e-06		< 1e-05				
A14G G37A	0.00833 ± 0.0023	3890 ± 1400	0.000119 ± 1.7e-05	0.00027 ± 3.3e-05	0.00126 ± 0.00017	0.00399 ± 0.0005	0.00564 ± 0.00066
G37A C58A	1.97e-05 ± 3.4e-06						
A64U U65G	1.26e-05 ± 1e-06						
C16U G51A C61G	1.5e-05 ± 3.9e-06						
U54A G66U	0.00199 ± 0.00037	1460 ± 440	8.58e-05 ± 1.9e-05	0.000194 ± 3.3e-05	0.000521 ± 8e-05	0.00141 ± 0.00024	0.00174 ± 0.00024
G40A A53U	0.00621 ± 0.0028		0.00015 ± 1.5e-05	0.000422 ± 0.00011	0.00107 ± 0.00016	0.00268 ± 0.00057	0.00711 ± 0.001
U45G A52U	0.000421 ± 0.0001		< 1e-05	< 1e-05		7.57e-05 ± 2e-05	0.000189 ± 3e-05
A15C A53G	0.0101 ± 0.0037	3060 ± 1500	0.000195 ± 2e-05	0.000515 ± 8.7e-05	0.00139 ± 0.00015	0.00454 ± 0.00066	0.00839 ± 0.00094
C16G C50A U57C C68U C71G	2.93e-05 ± 8.8e-06						
A48G U56C	5.09e-05 ± 1.7e-06	3700 ± 360					3.71e-05 ± 1.1e-05
G43U A53U	2.65e-05 ± 2.2e-06	2760 ± 880		< 1e-05			
G40A C68U	5.12e-05 ± 6.5e-06		< 1e-05			4.58e-05 ± 1e-05	4.59e-05 ± 5.4e-06
A15G C67G	0.00126 ± 0.0001	2600 ± 330		7.63e-05 ± 1.2e-05	0.000243 ± 2.4e-05	0.000654 ± 6.3e-05	0.000966 ± 0.00011
A12G C67A	0.000389 ± 8.6e-05	2400 ± 880		4.4e-05 ± 1e-05	7.88e-05 ± 8.7e-06	0.000186 ± 2.1e-05	0.000343 ± 4.8e-05
U54C C70G	0.000186 ± 3.5e-05		5.08e-05 ± 1.5e-05	0.000109 ± 3.8e-05	0.000175 ± 2.3e-05	0.000139 ± 2.6e-05	0.000325 ± 6.2e-05

Variant	kcat (glucosamine-6-phosphate [1]) [s⁻¹]	KM (glucosamine-6-phosphate [2]) [µM]	self-cleavage kobs at 40 uM GlcN6P (glucosamine-6-phosphate [3]) [s⁻¹]	self-cleavage kobs at 160 uM GlcN6P (glucosamine-6-phosphate [4]) [s⁻¹]	self-cleavage kobs at 640 uM GlcN6P (glucosamine-6-phosphate [5]) [s⁻¹]	self-cleavage kobs at 2500 uM GlcN6P (glucosamine-6-phosphate [6]) [s⁻¹]	self-cleavage kobs at 10000 uM GlcN6P (glucosamine-6-phosphate [7]) [s⁻¹]
U54G C58G	0.000237 ± 2.6e-05	4280 ± 1000				9.35e-05 ± 1.7e-05	0.000164 ± 2e-05
A6U C70U	0.000253 ± 4.2e-05	1200 ± 440			8.14e-05 ± 9.8e-06	0.00021 ± 2.2e-05	0.000197 ± 2.7e-05
G41C C71G	6.73e-05 ± 1.3e-05					6.12e-05 ± 7.2e-06	5.71e-05 ± 4.9e-06
A12C C50A U56A	< 1e-05				< 1e-05		
A39C G66C	0.00165 ± 0.00036	2780 ± 960	3.24e-05 ± 1.1e-05	7.03e-05 ± 1.6e-05	0.000348 ± 6.6e-05	0.00104 ± 0.00017	0.0012 ± 0.00016
G40U C58A	0.000609 ± 4.4e-05		< 1e-05	< 1e-05			3.81e-05 ± 9.5e-06
U31G A52G	0.000431 ± 4.6e-05	2820 ± 530			8.36e-05 ± 1.2e-05	0.000178 ± 3.1e-05	0.000352 ± 4.6e-05
U31A U54A	0.011 ± 0.003	1640 ± 590	0.000241 ± 4.8e-05	0.00112 ± 0.00023	0.00342 ± 0.00062	0.00508 ± 0.0013	0.0126 ± 0.0031
A53C U65A	0.000359 ± 3.3e-05	1720 ± 320		3.15e-05 ± 1e-05	9.23e-05 ± 1.4e-05	0.00025 ± 3.8e-05	0.000294 ± 3.7e-05
C10U A14C U30A G35A G38A	< 1e-05						
U31G U56G C67U	0.00109 ± 0.00017	2910 ± 800		8.73e-05 ± 3.2e-05	0.000176 ± 5.1e-05	0.000493 ± 0.00014	0.00086 ± 0.00015
U30C C67U	0.0001 ± 1.3e-05	927 ± 390		3.33e-05 ± 1.3e-05	3.56e-05 ± 7.9e-06	8.48e-05 ± 1.8e-05	9.05e-05 ± 1e-05
C61U C70G	1.1e-05 ± 2e-06						
U65C C68U	2.26e-05 ± 1.2e-06	558 ± 230					
C10A A12U C71U	1.55e-05 ± 6.5e-07	21.5 ± 9.2					
A14G G44A	0.00146 ± 0.00055		2.21e-05 ± 9.5e-06	4.23e-05 ± 1.4e-05	0.000664 ± 0.00018	0.00104 ± 0.00021	0.00102 ± 0.00013
A6U C68A	< 1e-05						
